Data: the nanobody polyreactivity screen of Harvey et al. (2022)

Experiment: yeast display, Sf9 membrane polyspecificity reagent, FACS + sequencing; frameworks hold sequencing errors
Method in brief: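 A nanobody's polyreactivity label depends on the gate it was sorted from. Yeast display cells were stained with 10% biotinylated, detergent-solubilized Sf9 membrane reagent for 1 hour at 4 °C, enriched on streptavidin microbeads and sorted by FACS. The low and high (top ~1%) gates were set on anti-HA fluorescence for expression and streptavidin fluorescence for reagent binding.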
With “QVQLVESGGGLVQAGGSLRLSCAASGSIFGLNAMGWYRQAPGKERELVAAISCGSTNYADSVKGRFTISRDNAKYTVYLQMNSLKPEDTAVYYCAARARRRYYYWGQGTQVTVSS” the “polyreactivity (PSR sort gate)” value was “high polyreactivity”. With “QVQLVESGGGLVQAGGSLRLSCASSGRTSLGYVMGWYRQAPGKERELVAAITKSGGSTYYADSVKGRFTISRDNAKNTVYLQMNSQKPEDTAVYYCAARNPWSARYEYWGQGTQVTVSS” the “polyreactivity (PSR sort gate)” value was “high polyreactivity”. For “QFHLVESGGGLFQAGGSLRISCAASGRTLLVNAMGWYRQAPGKERELVAVITRGGSTNYADSVKGRFTISRDNAKNTVYLQMNSLKPEDTAVYYCAKQFSPYRSYGPVVRYDYWGQGTQVTVSS”, the “polyreactivity (PSR sort gate)” value was “low polyreactivity”. For “QVQLVESGGGLVQAGGSLRLSCAASGRTFRFYAMGWSRQAPGKERELGAAITGSGGSTYYADSVKGRFTISRDNAKNTVYLQMNCLKPEDTAVYYCAASRWREYHASKMDYWGQGTQVTVSS”, the “polyreactivity (PSR sort gate)” value was “low polyreactivity”. With “QVQLVESGGGLVQAGGSLRLSCAASGFTFGWYAMGWYRQAPGKERELVAAISWSGGSTYYADSVKGRFTISRDNAKKTVYLQMNSLKPEDTAVYYCAAYPAYGGDYWGQGTQVTVSS” the “polyreactivity (PSR sort gate)” value was “high polyreactivity”. In the case of “QGQHVESGGGLVQAGGRLRLSCAASGSILSGYEMGRSREAPGKERELVASITRGGSTYYADSVKGRFTISRDNANNSVYFQMNSLNPEDPAVYDCARYGSKNRRLGMDYWGQGTQVTVSS”, the “polyreactivity (PSR sort gate)” value was “low polyreactivity”. For “QVQLVESGGGLVQAGGSLRLSCAASGFIFLYNAMGWYRQAPGKERELVATISTGGDTTYADSVKGRFTISRDNAKNTVYLQMNSVKPEDTAVYYCAKLDLSIFRWDTEFGLYDYWGQGTQVTVLS”, the “polyreactivity (PSR sort gate)” value was “low polyreactivity”. In the case of “QVQLVESGGGLVQAGGSLRLSCAASGFTFLINAMGWYRQAPGKERELVAAIRSGGSTNYADSVKGRFTISRDNAKNSVYLQMNSLKPEDTAVYYCAARRYYPYKYRYGYWGQGTQVTVSS”, the “polyreactivity (PSR sort gate)” value was “high polyreactivity”. In the case of “QVQLVESGGGLVQAGGSLRLSCAASGSIYWNTMGWYRQAPGKERELVAGISSSGDSTYYADSVKGRFTISRDNAKNTVYLQMNSLKPEDTAVYYCAARTRRFRYYYWGQGTQVTVSS”, the “polyreactivity (PSR sort gate)” value was “high polyreactivity”. With “QVQLVESGGGLVQAGGSLRLSCAASGRTFYRYAMGWYRQAPGKEREFVARITTSGGSTYYADSVKGRFTISRDNAKNTVYLEMNSLKPEDTAVYYCAASAPYIYYWGQGTQVTVSS” the “polyreactivity (PSR sort gate)” value was “high polyreactivity”. With “QVQLVESGGGLVQAGGSLRLSCAASGLTLYTYAMGWYREAPGKESELVAAISKNGGRTYYADSVKGRFTISRDNAKNTVYLQMNSLKPEDTAVYYCAARARVGTVTFDFWGQGTQVTVSS” the “polyreactivity (PSR sort gate)” value was “high polyreactivity”. With “QVQLVESGGGLVQAGGSLRLSCAASGSIFYPYTMGWYRQAPGKEREFVAAITGGGGRTYYADSVKGRFTISRDNAKNTVYLQMNSLKPEDTAVYYCATDTYDVNVWELGMDYWGQGTQVTVSS” the “polyreactivity (PSR sort gate)” value was “low polyreactivity”. For “QVQLVESGGGLVQAGGSLRFSCAASGFTFSVYAMGWYRQAPGTEMELVAAIHWSGGSTYYADSVKGRFTISRDNAKNTVYLQMNSLKPEDTAVYYCNTLYWYTRHVVDYWGQGTQVTVSS”, the “polyreactivity (PSR sort gate)” value was “high polyreactivity”. With “QVQLVESGGGLVQAGGSLRLSCAASGITFYDYAMGWYRQAPGKERELVASIDNSGGSTYYADSVKGRFTISRDNAKNTVYLQMNSLNPEDTAVYYCAAVSRYYFLGVAFLDDYWGQGTQVTVSS” the “polyreactivity (PSR sort gate)” value was “high polyreactivity”. With “QVQLVESGGGLVQAGGSLRLSCAASGRIFTINAMGWYRQAPGKERELVAVITRGGSTKYADSVKGRFTISRDNAKNTVYLQMNSLKPEDTAVYYCAARVRAGHGKNGYWGQGTQVTVSS” the “polyreactivity (PSR sort gate)” value was “high polyreactivity”. For “QVQLVESGGGLVQAGGSLRLSCAASGFIFVVYAMGWYRQAPGKERELVATISSGGGTYYADSVKGRFTISRDNAKNSVYFQMNSLKPEDTAVYYCAARRSRLYHFGGNNYWGQGTQVTVSS”, the “polyreactivity (PSR sort gate)” value was “high polyreactivity”. With “QVQLVESGGGLVQAGGSLRLSCAASGSIFSINTMVWYRLAPGKERELVAAISRTGGSTYYADSVKGRFTNSRDNAKNTVYLQMNSLKPEDTAVYYCGKDRRRSTYEYWGQCTQVTVSS” the “polyreactivity (PSR sort gate)” value was “high polyreactivity”. In the case of “QVQLVESGGGLVQAGGSLRLSCACSGHTFSSYAIGWYRQAPGKERELVAAISVSATRTYYADSVKGRFTISRDNEKNTVYLQMNSLKPEDTAVYYFAARPVQFTYGYWGLGTQVTVSS”, the “polyreactivity (PSR sort gate)” value was “high polyreactivity”. For “QVHLVESGGGLVQAGGSLRLCCAASGRIFDHNTKGWYRQAPGKEMEFVAAITVSAGTTYYADSVKGRFTISSDNAKNTVYLQMNSLKPEDTAVYYCAAYYVYSYWDWGDYWGQGTQVTVSS”, the “polyreactivity (PSR sort gate)” value was “low polyreactivity”. With “QVQLVESGGGLVQAGGSLRLSCAASGIIFYRYAMGWYRQAPGKERELVARITYNGGRTYYADSVKGRFTISRDNAKKTVYLQMNSLKPEDSAVYYCAARGHGGYYYWGQGTQVTVSS” the “polyreactivity (PSR sort gate)” value was “high polyreactivity”. For “QVQLVESGGGLVQAGGSLRLSCAASGGTFVTYTMAWYRQAPGKEREFVAAISRSGGSTYYADSVKGRFTISRDNAKNTVYLQMNSLKPEDTAVYYCATRGRYYGPGYDYWGQGTQVTVSS”, the “polyreactivity (PSR sort gate)” value was “high polyreactivity”. For “QVQLVESGGGLVQAGGSLRLSCAASRSIFRYYTMGWYRQAPGKETELVASISRGGSTNYADSVKGRFTISRDNAKNTVYLQMNSLKPEDTAVYDCAAGWTTRYFGGVDYWGQGTQVTVSS”, the “polyreactivity (PSR sort gate)” value was “high polyreactivity”. With “QVQLVESGGGLVQAGGSLRLSCPASGRIYGYYVMGWYRQAPGKERELVASITSGGSTYYADSVKRRFTISRDNAKYTVYFQMNSLKPEDTAVYDCAARRAWSWKIYDYWGQGTQVTVSS” the “polyreactivity (PSR sort gate)” value was “high polyreactivity”. In the case of “QVHLVESGGGLVKAGGSLRLSCPASGFIFTLYAMGWYRQPPGKERELVASIRGSGGNTYYADSVKGRFTISRDNAKNTVYLQMNSLKPEDTAVYYCAAGYPYYYWTPYYYWGQGTQVTVSS”, the “polyreactivity (PSR sort gate)” value was “high polyreactivity”. In the case of “QVQLVESGGGLVQAGGSLRLSCAASGSIFISYAMGWYRQAPGKERELVAAINSGGSTNYADSVKGRFTISRDNAKNTVYLQMNSLKPEDTAVYYCAVDGYFFQGPYYYWGQGTQVTVSS”, the “polyreactivity (PSR sort gate)” value was “low polyreactivity”. For “QVQLVESGGGLVQAGGSLRLSCAASGIIFPYNVMGWYRQAPGKERELVAAITRGAASTYYADSVKGRFTISRDNAKNTVYLQMNSLKPEDTAVYYCATDPVSTRGSDYWGQGTQVTVSS”, the “polyreactivity (PSR sort gate)” value was “high polyreactivity”. In the case of “QVQLVESGGGLVQAGGSLRLSCAASGRIFYKSAMGWSRQAPGKEREWVAAITTSGGSTYYADSVKGRFTISRDNAKNTVYLQMNSLKPEDTAVYYCAARSAYGTQRLYYWGQGTQVTVSS”, the “polyreactivity (PSR sort gate)” value was “high polyreactivity”. In the case of “QVQLVESGGGLVQAGGSLRLSCAASGIIFFPYAMGWYRQAPGKEREFVAAITSRGGSTYYADSVKGRFTISRDNAKNTVYLQMNSLKPEDTAVYYCAADHLGRARGPWRYNYWGQGTQVTVSS”, the “polyreactivity (PSR sort gate)” value was “low polyreactivity”. With “QVQLVESGGGLVQAGGSLRLSCAASGFIFGLYAMGWYRQAPGKERELVATISWDGGSTYYADSVKGRFTISRDNAKNTVYLQMNSLKPEDTAVYYCNARYIGGYGYWGQGTQVTVSS” the “polyreactivity (PSR sort gate)” value was “low polyreactivity”. With “QVQLVESGGGLVQAGGSLRLSCAASGFIFGRYAMGWYRQAPGKERELVAAISSGDDTDYADSVKGRFTISRDNAKNTVYLQMNSLKPEDTAVSYCARSRFWSPVIYRRTIEFDSWGQGTQVTVSS” the “polyreactivity (PSR sort gate)” value was “low polyreactivity”. In the case of “QVQLVESGGGLVQAGGSLRLSCAAYGRTFEINAMGWYRQATGKERELVAAISWDDGSTYYADSVKGRFTISRDNAKNTVYLQMNSLKPEDTAVYYCAAESPLHYTHRRGYEYWGQGTQVTVSS”, the “polyreactivity (PSR sort gate)” value was “low polyreactivity”. In the case of “QVQLVESGGGLVQAGGSLRLSCAASGFIFWSNAMGWYRQAPGKERELVAAISWSGGSTYYADSVKGRFTISRDNAKKTVYLQMNSLKPEDTAVYYCNTLNVQRDEHDYWGQGTQVTVSS”, the “polyreactivity (PSR sort gate)” value was “high polyreactivity”. In the case of “QVQLVESGGGLVQAGGSLRLSCAASGRTFKTYAMGWYRQAPGKERELVAAIDSGGNTYADSVKGRFTISRDNAKNTVYLQMNSLKPEDTAVYYCAVDGGEFSSYGYWGHGTQVTVSS”, the “polyreactivity (PSR sort gate)” value was “low polyreactivity”. For “QVQLVESGGGLVQAGGSLRLSFAASGSIFPVYAMGWYKQAPGKERELVAAITTAGRTYYADSVKGRFTISRDNAKNTVYLQMNSLKPEDTAVYYCNARSRKVLTVDGGYWGQGTQVTVSS”, the “polyreactivity (PSR sort gate)” value was “high polyreactivity”. With “QVQIVESGGGLVQAGGSLRLSCAASGRTFQYYTMGWSRQAPGKEREFVAAIRDSGGSTYYADSVKGRFTISRDNAKNTVYLQMNSLKPEDTAVYYCAAYRPRKYDYWGQGTQVTVSS” the “polyreactivity (PSR sort gate)” value was “high polyreactivity”. For “QVQLVESGGGLVQAGGSLRLSCAASGRTLDVYAMGWYRQAPGKERELVADINWSGGRTYYADSVKGRFTISRDNAKNTVYLQMNSLIPEDTAVFYCAADLSWRQYYREYDYWGQGTQVTVSS”, the “polyreactivity (PSR sort gate)” value was “high polyreactivity”. For “QVQLVESGGGLVHAGGSLRLSCAASGSTFWYNAMGWYRQAPGKERELVAAITWSGSRTYYSDSVKGRFTISRDNAKNTVYLQMNSLKPEDTAVYYCNRTRSFTRYDVFYGTIPAFDYWGQGTQVTVSS”, the “polyreactivity (PSR sort gate)” value was “high polyreactivity”. In the case of “QVQLVESGGGLVQAGGSLRLSSAASGSIFPKNTMGWYRQAPGKERELVAAISKSGGSTYYADSVKGRFTISRDNAKNTVYLQMNSLKPEDTAVYYCAAALGLRSTSWGRRGGGGDYWGQGTQVTVSS”, the “polyreactivity (PSR sort gate)” value was “high polyreactivity”. In the case of “QVQLVESGGGLVQAGGSLRLSCAASGLTFNRNAMGWYRQAPGKERELVATISGSGASTYYADSVKGRFTISRDYAKNTVYLQMNSLKPEDTAVYDCAARWHYSWGSYGFDYWGQGTQVTVSS”, the “polyreactivity (PSR sort gate)” value was “high polyreactivity”. In the case of “QVQLVESGGGLVQAGGSLRLSCAASGITLYRYTMGWDRQAPGTEREFVAAISRSGGSTYYADSVKGRFTISRDNEKNTVYVQMNSLKPEDTAVYYCAARWYEKTTRPYGSWGQGTQVTVSS”, the “polyreactivity (PSR sort gate)” value was “high polyreactivity”. For “QVQLEESWGGLVQAGGSLRLSCAASGSIYWEYAMGWYTPAPGKEREFVATISARGGRTYYADSVKGRFTISRDNAKNTVYLQMNSLKPEDTAVYYCANVGVFHLRDNYRFDFWGQGTQVTVSS”, the “polyreactivity (PSR sort gate)” value was “low polyreactivity”.
